Assay results reported in article PMC8080463.

Experiments:
Experiment in all cases: SPR
bFGF = bFGF (UniProt P09038 143-288)
aFGF = aFGF (UniProt P05230 16-155)
ApoE4 = ApoE4 (UniProt P02649 19-317, C130R)
HB-EGF = HB-EGF (UniProt Q99075 63-148)
HGF = HGF (UniProt P14210;P14210 32-494;495-728)
Chain of HGF (P14210 32-494, chain 1 of 2): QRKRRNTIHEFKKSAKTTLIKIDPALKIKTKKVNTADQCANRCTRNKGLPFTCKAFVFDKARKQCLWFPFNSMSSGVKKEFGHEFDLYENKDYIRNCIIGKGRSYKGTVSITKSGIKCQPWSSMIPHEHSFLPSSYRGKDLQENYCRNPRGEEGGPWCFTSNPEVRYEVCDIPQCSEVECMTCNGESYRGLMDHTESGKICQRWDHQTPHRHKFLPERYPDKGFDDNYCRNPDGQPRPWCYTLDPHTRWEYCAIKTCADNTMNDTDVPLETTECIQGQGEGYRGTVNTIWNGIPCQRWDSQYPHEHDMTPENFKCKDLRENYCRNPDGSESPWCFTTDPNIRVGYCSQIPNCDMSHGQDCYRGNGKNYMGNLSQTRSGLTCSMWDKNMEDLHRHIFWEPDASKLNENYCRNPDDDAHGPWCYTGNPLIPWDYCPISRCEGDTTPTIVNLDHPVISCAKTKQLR
Chain of HGF (P14210 495-728, chain 2 of 2): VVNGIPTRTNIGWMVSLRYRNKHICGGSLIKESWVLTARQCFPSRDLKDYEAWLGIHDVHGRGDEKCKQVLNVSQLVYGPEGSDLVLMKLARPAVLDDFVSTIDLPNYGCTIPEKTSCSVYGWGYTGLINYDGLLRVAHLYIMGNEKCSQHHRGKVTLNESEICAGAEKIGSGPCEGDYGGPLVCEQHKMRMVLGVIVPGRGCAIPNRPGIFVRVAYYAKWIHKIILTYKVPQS

Chain of aFGF (P05230 16-155): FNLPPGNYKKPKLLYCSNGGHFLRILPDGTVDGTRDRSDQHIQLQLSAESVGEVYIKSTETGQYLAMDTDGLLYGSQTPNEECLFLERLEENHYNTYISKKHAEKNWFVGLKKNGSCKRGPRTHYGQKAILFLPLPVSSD
Chain of ApoE4 (P02649 19-317 C130R): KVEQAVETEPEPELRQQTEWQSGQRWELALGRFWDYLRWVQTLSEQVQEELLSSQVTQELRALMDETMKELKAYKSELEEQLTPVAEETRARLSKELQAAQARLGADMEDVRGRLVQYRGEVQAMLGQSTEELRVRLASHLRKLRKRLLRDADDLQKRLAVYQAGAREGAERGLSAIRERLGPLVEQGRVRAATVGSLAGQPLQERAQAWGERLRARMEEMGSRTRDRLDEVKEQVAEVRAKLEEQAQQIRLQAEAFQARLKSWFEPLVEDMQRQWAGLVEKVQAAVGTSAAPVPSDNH
Chain of HB-EGF (Q99075 63-148): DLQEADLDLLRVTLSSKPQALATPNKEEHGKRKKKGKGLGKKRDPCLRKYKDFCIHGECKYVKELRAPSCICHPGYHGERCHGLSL
Chain of bFGF (P09038 143-288): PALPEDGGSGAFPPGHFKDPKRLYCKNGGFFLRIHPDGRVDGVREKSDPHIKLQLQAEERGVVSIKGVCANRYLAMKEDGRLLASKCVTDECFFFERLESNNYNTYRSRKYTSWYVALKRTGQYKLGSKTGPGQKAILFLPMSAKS

B1: bFGF-PQS12 (ssDNA)
DNA: GGGAGGAGGGTGCAGGCTGGAGG
- binding result (bFGF): no binding

B2: aFGF-PQS20 (ssDNA)
DNA: GGGAAGGAGGGAGGAAGGGAGGGAGGG
- binding result (aFGF): no binding

B3: aFGF-PQS17 (ssDNA)
DNA: GGAAATGAGGCAGAGGGGGAGTAAGG
- binding result (aFGF): no binding

B4: bFGF-PQS11 (ssDNA)
DNA: GGAAAGGAGGGGG
- binding result (bFGF): no binding

B5: aFGF-PQS4 (ssDNA)
DNA: GGTGGGTGGGTATGG
- binding result (aFGF): no binding

B6: ApoE4-PQS3 (structured_DNA)
DNA: GGCCCCTGGTGGAACAGGG
- binding result (ApoE4): no binding

B7: aFGF-PQS21 (ssDNA)
DNA: GGTCCCAGGCCTGGGAGGG
- binding result (aFGF): no binding

B8: bFGF-PQS18 (ssDNA)
DNA: GGCCGCGGCAGGGCTTTGG
- binding result (bFGF): no binding

B9: HBEGF-PQS6 (ssDNA)
DNA: GGCGCGCGGGGTCGGGCGGCCGCGCGGG
- binding result (HB-EGF): no binding

B10: aFGF-PQS7 (ssDNA)
DNA: GGTGGGGGGGG
- binding result (aFGF): no binding

B11: aFGF-PQS2 (ssDNA)
DNA: GGAGAGGGTAGAGTGGGATGGG
- binding result (aFGF): no binding

B12: HBEGF-PQS5 (ssDNA)
DNA: GGCCGGGAATAAGGCTCCAGG
- binding result (HB-EGF): no binding

B13: bFGF-PQS1 (ssDNA)
DNA: GGGGTTGGGCGGGGGTGACTTTTGGGGGATAAGGGG
- binding result (bFGF): no binding

B14: aFGF-PQS1 (ssDNA)
DNA: GGAGAACAGGAAGGCGGGGGTGAGGG
- binding result (aFGF): no binding

B15: HBEGF-PQS3 (ssDNA)
DNA: GGCGGCCACTGGGCGCTGG
- binding result (HB-EGF): no binding

B16: ApoE4-PQS8 (structured_DNA)
DNA: GGGCTGGGATGGGGCGGG
- binding result (ApoE4): no binding

B17: HBEGF-PQS14 (ssDNA)
DNA: GGAGGCGGCCGG
- binding result (HB-EGF): no binding

B18: bFGF-PQS7 (ssDNA)
DNA: GGGCCGGGGCCGGGGGACGG
- binding result (bFGF): no binding

B19: ApoE4-PQS4 (structured_DNA)
DNA: GGAGCGGGCCCAGGCCTGGG
- binding result (ApoE4): no binding

B20: bFGF-PQS10 (ssDNA)
DNA: GGGCCGGGGGTACTGGTTTACAGG
- binding result (bFGF): no binding

B21: HBEGF-PQS13 (ssDNA)
DNA: GGAGCGGCTTCGGAGAGG
- binding result (HB-EGF): no binding

B22: ApoE4-PQS1 (structured_DNA)
DNA: GGTGGCGGAGG
- Kd (ApoE4): 60 nM

B23: ApoE4-PQS6 (structured_DNA)
DNA: GGACGAGGTGAAGGAGCAGG
- binding result (ApoE4): no binding

B24: aFGF-PQS5 (ssDNA)
DNA: GGCACTGGAGGAATGG
- binding result (aFGF): no binding

B25: bFGF-PQS6 (ssDNA)
DNA: GGAGCGGGTCGGAGG
- binding result (bFGF): no binding

B26: aFGF-PQS12 (ssDNA)
DNA: GGGTGGTGTGGGAGTGG
- binding result (aFGF): no binding

B27: ApoE4-PQS7 (structured_DNA)
DNA: GGCTGGTGGAGAAGGTGCAGG
- binding result (ApoE4): no binding

B28: aFGF-PQS13 (ssDNA)
DNA: GGCATGGTATCTGGAGGCAGG
- binding result (aFGF): no binding

B29: HBEGF-PQS4 (ssDNA)
DNA: GGGCGGCGGAGCTCAGG
- binding result (HB-EGF): no binding

B30: ApoE4-PQS5 (structured_DNA)
DNA: GGATGGAGGAGATGGGCAGCCGG
- binding result (ApoE4): no binding

B31: ApoE4-PQS2 (structured_DNA)
DNA: GGCCCGGCTGGGCGCGG
- binding result (ApoE4): no binding

B32: bFGF-PQS4 (ssDNA)
DNA: GGCTCGAGGCTGGGGGACCGCGG
- binding result (bFGF): no binding

B33: aFGF-PQS14 (ssDNA)
DNA: GGGCTGGAGGGGGCAGG
- binding result (aFGF): no binding

B34: aFGF-PQS3 (ssDNA)
DNA: GGAGACGGTAGGGCAAAGTGG
- binding result (aFGF): no binding

B35: HBEGF-PQS11 (ssDNA)
DNA: GGACGGGCGTCGGCATCGG
- binding result (HB-EGF): no binding

B36: aFGF-PQS8 (ssDNA)
DNA: GGTTGGGACTGGCGAGG
- binding result (aFGF): no binding

B37: aFGF-PQS9 (ssDNA)
DNA: GGCCAGGACAGGGTAAGG
- binding result (aFGF): no binding

B38: bFGF-PQS16 (ssDNA)
DNA: GGCGAGCCGGCGGCCCGGGACCTGGG
- binding result (bFGF): no binding

B39: aFGF-PQS10 (ssDNA)
DNA: GGCTAGAAGGTGGGGAATAAGG
- binding result (aFGF): no binding

B40: aFGF-PQS18 (ssDNA)
DNA: GGGAGGTTAGGGTTGG
- binding result (aFGF): no binding

B41: HBEGF-PQS2 (structured_DNA)
DNA: GGAGGCGGCGAGG
- binding result (HB-EGF): no binding

B42: HGF-PQS2 (ssDNA)
DNA: GGAATAGGGAAGGTTAGCAGG
- binding result (HGF): no binding

B43: aFGF-PQS16 (ssDNA)
DNA: GGGCAAAGGTCCTAGGGTGGGGG
- binding result (aFGF): no binding

B44: HGF-PQS3 (structured_DNA)
DNA: GGGGATGGCGATGGGGAGCAGG
- binding result (HGF): no binding

B45: bFGF-PQS17 (ssDNA)
DNA: GGGGGCGGGGGAGAGGCGAGGGGCGGGGGG
- binding result (bFGF): no binding

B46: HBEGF-PQS7 (ssDNA)
DNA: GGCGGGCGGCAGACGGTGCCCGG
- binding result (HB-EGF): no binding

B47: HBEGF-PQS1 (structured_DNA)
DNA: GGGAGGGTCCGGGTTGCTGG
- binding result (HB-EGF): no binding

B48: aFGF-PQS23 (ssDNA)
DNA: GGTGGGAGGAAGG
- binding result (aFGF): no binding

B49: aFGF-PQS6 (ssDNA)
DNA: GGGAGAGGGACGGGCCGTGG
- binding result (aFGF): no binding

B50: aFGF-PQS11 (ssDNA)
DNA: GGGCTTGGCTCTGGGGATGG
- binding result (aFGF): no binding

B51: bFGF-PQS5 (ssDNA)
DNA: GGGAGGCTGGGGGGCCGGGGCCGGGG
- binding result (bFGF): no binding

B52: bFGF-PQS13 (ssDNA)
DNA: GGCCGGGCGGGAAGG
- binding result (bFGF): no binding

B53: bFGF-PQS15 (ssDNA)
DNA: GGGCACGGCCCCGGCCCCGG
- binding result (bFGF): no binding

B54: HBEGF-PQS12 (structured_DNA)
DNA: GGTCAGGGGTCTGGGCGGG
- binding result (HB-EGF): no binding

B55: aFGF-PQS22 (ssDNA)
DNA: GGATGGGACAAGGGACAGG
- binding result (aFGF): no binding

B56: bFGF-PQS8 (ssDNA)
DNA: GGTTTCTGGCCGCGCGGCCCTCGG
- binding result (bFGF): no binding

B57: aFGF-PQS19 (ssDNA)
DNA: GGTGGAGGAAAGG
- binding result (aFGF): no binding

B58: bFGF-PQS3 (ssDNA)
DNA: GGGGGCGCGGGAGGCTGGTGGGTGTGGGGGG
- binding result (bFGF): no binding

B59: aFGF-PQS15 (ssDNA)
DNA: GGCCTGCAGGACTCTGGGAGG
- binding result (aFGF): no binding

B60: bFGF-PQS9 (ssDNA)
DNA: GGCTGCGGCGTAGGCCCGGG
- binding result (bFGF): no binding

B61: bFGF-PQS14 (ssDNA)
DNA: GGGCAAGGCGGGCAGCGTGG
- binding result (bFGF): no binding

B62: bFGF-PQS2 (ssDNA)
DNA: GGGGGCGGCGCGCAGGAGGGAGG
- binding result (bFGF): no binding

B63: HBEGF-PQS10 (ssDNA)
DNA: GGCACGGGCCACTTGGTGGGG
- binding result (HB-EGF): no binding
